Reference: patent US20260022170A1 (ADAPTAM THERAPEUTICS S L, published 2026)

How the values were obtained:
[1] = target: T1, human Siglec-9 protein (recombinant; construct not stated) (human, UniProt Q9Y336 18-344, limits assumed); experiment: BLI, antibody in Fab format at 250 nM
T1 construct: also called recombinant Siglec-9
Protocol: (§1) BLI experiments were performed to assess binding of the generated anti-Siglec-9 antibodies to Siglec family members Siglec-3, Siglec-6, Siglec-7, Siglec-8, Siglec-9, and Siglec-10. The antibodies were tested in Fab format at 250 nM.

Siglec-7 (BLI) = Siglec-7 (BLI) (UniProt Q9Y286 19-353, limits assumed); experiment: BLI, antibody in Fab format
Sequence of Siglec-7 (BLI) (Q9Y286 19-353 limits assumed): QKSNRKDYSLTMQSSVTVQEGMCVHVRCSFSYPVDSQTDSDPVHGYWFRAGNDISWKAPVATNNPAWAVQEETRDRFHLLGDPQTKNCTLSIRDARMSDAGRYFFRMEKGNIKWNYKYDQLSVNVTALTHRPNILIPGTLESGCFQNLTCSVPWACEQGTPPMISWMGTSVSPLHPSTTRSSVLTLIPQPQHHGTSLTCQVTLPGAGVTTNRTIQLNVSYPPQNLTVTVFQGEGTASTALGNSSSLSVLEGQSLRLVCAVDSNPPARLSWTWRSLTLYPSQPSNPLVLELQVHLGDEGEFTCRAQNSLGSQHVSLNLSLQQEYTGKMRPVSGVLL
Protocol: as §1

Siglec-3 = Siglec-3 (UniProt P20138 18-259, limits assumed); experiment: BLI, antibody in Fab format
Sequence of Siglec-3 (P20138 18-259 limits assumed): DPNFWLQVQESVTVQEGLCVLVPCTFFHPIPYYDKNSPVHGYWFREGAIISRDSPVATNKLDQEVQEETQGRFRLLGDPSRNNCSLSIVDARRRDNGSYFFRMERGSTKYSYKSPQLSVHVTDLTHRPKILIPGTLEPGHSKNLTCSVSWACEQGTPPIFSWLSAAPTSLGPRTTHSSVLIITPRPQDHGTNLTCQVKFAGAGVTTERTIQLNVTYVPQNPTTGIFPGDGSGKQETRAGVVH
Protocol: as §1

Siglec-6 = Siglec-6 (UniProt O43699 27-347, limits assumed); experiment: BLI, antibody in Fab format
Sequence of Siglec-6 (O43699 27-347 limits assumed): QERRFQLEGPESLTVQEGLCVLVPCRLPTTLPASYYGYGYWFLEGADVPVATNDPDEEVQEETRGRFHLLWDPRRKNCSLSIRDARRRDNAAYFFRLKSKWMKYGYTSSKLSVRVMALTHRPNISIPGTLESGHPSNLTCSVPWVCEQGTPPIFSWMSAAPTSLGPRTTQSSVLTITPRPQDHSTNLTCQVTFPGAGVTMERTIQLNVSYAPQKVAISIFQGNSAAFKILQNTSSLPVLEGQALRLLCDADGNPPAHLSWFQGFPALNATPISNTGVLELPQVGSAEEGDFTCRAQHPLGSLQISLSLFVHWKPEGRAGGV
Protocol: as §1

Siglec-10 = target: T2, Siglec-10 (UniProt Q96LC7 17-546, limits assumed); experiment: BLI, antibody in Fab format
T2 sequence (looked up): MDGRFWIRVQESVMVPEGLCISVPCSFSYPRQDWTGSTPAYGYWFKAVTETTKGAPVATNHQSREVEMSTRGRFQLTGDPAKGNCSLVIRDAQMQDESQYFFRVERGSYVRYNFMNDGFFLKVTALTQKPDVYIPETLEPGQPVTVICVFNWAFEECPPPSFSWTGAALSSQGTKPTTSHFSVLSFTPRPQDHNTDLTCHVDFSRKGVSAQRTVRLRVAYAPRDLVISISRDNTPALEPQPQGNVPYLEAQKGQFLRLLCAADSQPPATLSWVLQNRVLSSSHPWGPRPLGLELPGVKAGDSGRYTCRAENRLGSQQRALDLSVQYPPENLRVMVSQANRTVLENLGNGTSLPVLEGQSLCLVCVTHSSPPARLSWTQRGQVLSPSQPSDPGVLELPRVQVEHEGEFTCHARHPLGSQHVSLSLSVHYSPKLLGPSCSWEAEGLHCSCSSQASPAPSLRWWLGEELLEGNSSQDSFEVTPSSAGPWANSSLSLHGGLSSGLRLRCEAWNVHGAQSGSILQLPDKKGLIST
Protocol: as §1

Siglec-8 = Siglec-8 (UniProt Q9NYZ4 17-363, limits assumed); experiment: BLI, antibody in Fab format
Sequence of Siglec-8 (Q9NYZ4 17-363 limits assumed): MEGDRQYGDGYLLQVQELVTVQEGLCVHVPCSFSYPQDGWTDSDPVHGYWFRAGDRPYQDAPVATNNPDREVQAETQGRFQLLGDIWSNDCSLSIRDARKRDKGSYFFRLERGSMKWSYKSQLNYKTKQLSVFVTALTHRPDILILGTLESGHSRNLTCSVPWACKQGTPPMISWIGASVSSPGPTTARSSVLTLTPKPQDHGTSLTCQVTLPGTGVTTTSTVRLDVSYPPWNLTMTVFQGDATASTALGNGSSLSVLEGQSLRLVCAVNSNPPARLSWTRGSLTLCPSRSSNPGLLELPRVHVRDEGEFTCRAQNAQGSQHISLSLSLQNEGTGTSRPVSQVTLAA
Protocol: as §1

[2] = target: T3, recombinant Siglec-9 (SinoBiological, 30109-H03H) (human, UniProt Q9Y336 18-348); experiment: ELISA on coated ectodomains
T3 construct: also called ectodomain of Siglec-9; recombinant human Siglec-9 protein
T3 sequence (Q9Y336 18-348 limits assumed): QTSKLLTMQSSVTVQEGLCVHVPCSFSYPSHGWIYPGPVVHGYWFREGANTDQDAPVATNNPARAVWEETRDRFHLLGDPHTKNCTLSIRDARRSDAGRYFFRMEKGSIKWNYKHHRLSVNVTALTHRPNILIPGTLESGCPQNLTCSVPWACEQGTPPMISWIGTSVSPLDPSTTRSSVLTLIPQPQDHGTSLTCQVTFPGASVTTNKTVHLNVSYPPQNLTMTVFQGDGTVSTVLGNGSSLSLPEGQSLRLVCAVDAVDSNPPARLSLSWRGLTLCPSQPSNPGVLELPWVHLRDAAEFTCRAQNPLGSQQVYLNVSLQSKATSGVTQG
Protocol: (§2) Next, the binding of anti-Siglec-9 monoclonal antibodies ED2D5, C1B613, BC3G5, and DH1A11 to the ectodomains of Siglec-9, Siglec-7, and a control was assessed using ELISA. An anti-Siglec-7 antibody control and isotype control were utilized. […] Antibody clones huCB6B3, mAbA, 68D4, and Tf73 also produced similar EC50 values.
(§3) To perform the ELISA experiments, 96-well plates were coated with recombinant Siglec-9 (SinoBiological, 30109-H03H) (100 μL) at 2 μg/mL in carbonate/bicarbonate buffer pH 9.6 overnight at 4° C., and washed with 250 μL of PBST (PBS, 0.1% Tween-20). Plates were blocked with blocking buffer (3% BSA in PBS) for 1 hour at room temperature, washed, and 100 μL of serially diluted anti-Siglec-9 antibodies-test antibodies, benchmarks, or control-starting at 66.64 nM (4-fold serial dilutions in PBST with 1% w/v non-fat milk), were added for 2 hours at RT. The plates were washed and incubated at room temperature with an anti-mouse IgG HRP detection antibody (1:5000, 1-hour, Anti-mouse IgG-HRP), followed by three washes of 250 μL of PBST, and two more with 400 μL of PBS, before the addition of 100 μL of TMB (Thermo Scientific) for 2-6 minutes. The reaction was stopped with 50 μL of Stop Solution (Thermo Scientific). The OD was measured at 450 nm in a multimode plate reader (Victor Nivo, PerkinElmer). OD values were plotted against antibody concentration, and data were analyzed using GraphPad Prism software.

ectodomain of Siglec-7 = target: T4, ectodomain of Siglec-7 (UniProt Q9Y286 19-353, limits assumed); experiment: ELISA on coated ectodomains
T4 construct: extracellular domain
T4 sequence (Q9Y286 19-353 limits assumed): as the sequence (Q9Y286 19-353 limits assumed) above
Protocol: as §2, §3

[3] = target: T1, human Siglec-9 protein (recombinant; …); experiment: ELISA on recombinant Siglec-9
Protocol: as §2
as §3, with “The reaction was stopped with 50 μL of Stop Solution (Thermo Scientific).” left out

[4] = target: T1, human Siglec-9 protein (recombinant; …); experiment: ELISA, human Siglec-9 protein coated at 2 µg/mL, antibody titrated 0.4 pM to 400 nM
Protocol: The binding of the different IgG CB6B3 antibodies was analyzed via ELISA using human Siglec-9 protein as immobilized antigen (2 μg/mL). The different antibodies were titrated from 0.4 pM to 400 nM (FIG. 9). Human Siglec-9 protein was diluted in PBS pH 7.4 and coated overnight at 4° C. Remaining binding sites were blocked with PBS, 2% skimmed milk power (MPBS) for 2 hours. Bound murine IgG CB6B3 antibody was detected with an HRP-conjugated anti-mouse Fc secondary antibody (Sigma Aldrich A554; 1:5,000 dilution). All antibodies were diluted in MPBS. Incubation times were 1 hour each. TMB/H2O2 was used as substrate. […] Thus, the humanised antibodies retained antigen specificity and bound with similar potency to purified antigen in ELISA.

T1 sequence (Q9Y336 18-344 limits assumed): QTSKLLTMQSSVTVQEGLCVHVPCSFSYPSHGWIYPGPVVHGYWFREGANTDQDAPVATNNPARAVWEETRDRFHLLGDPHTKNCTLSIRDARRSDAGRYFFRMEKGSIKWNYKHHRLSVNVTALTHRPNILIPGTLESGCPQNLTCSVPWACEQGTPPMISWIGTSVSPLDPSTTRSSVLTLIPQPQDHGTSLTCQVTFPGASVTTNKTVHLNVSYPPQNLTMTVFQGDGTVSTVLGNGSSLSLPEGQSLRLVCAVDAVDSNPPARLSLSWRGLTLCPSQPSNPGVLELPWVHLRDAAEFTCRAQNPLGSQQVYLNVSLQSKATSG

B1: ED2D5 in Fab format (Fab, V domains shown)
VH: EVQLVESGGGLVKPGGSLKLSCAASGFTFSDYYMYWVRQTPEKRLEWVATISDGGSDTYYPDNMKGRFTISRDNAKNNLYLQMSSLKSEDTAMYYCTRDPDYDDGRFAYWGQGTLVTVSA
VL: DIVMTQSHKFMSTSVGDRVSITCKASQDVGTVVAWYQQKSGQSPKLLIYWSSTRHTGVPDRFTGSGSGTDFTLTISNVQSEDLADYFCQQYIDYPLSFGAGTKLELK
notes: Tested in Fab format in BLI
Does B1 bind [1]?
Result: binds

Does B1 bind (Siglec-7 (BLI))?
Result: no binding (tested: 250 nM)

Does B1 bind (Siglec-3)?
Result: no binding (tested: 250 nM)

Does B1 bind (Siglec-6)?
Result: no binding (tested: 250 nM)

Does B1 bind (Siglec-10)?
Result: no binding (tested: 250 nM)

Does B1 bind (Siglec-8)?
Result: no binding (tested: 250 nM)

B2: anti-Siglec-9 monoclonal antibody clone ED2D5 (antibody, V domains shown)
VH: B1 VH
VL: B1 VL
notes: Mouse hybridoma monoclonal antibody
Does B2 bind [2]?
Result: binds

Does B2 bind (ectodomain of Siglec-7)?
Result: no binding

B3: anti-Siglec-9 monoclonal antibody clone CB6B3 (parental mouse antibody) (antibody, V domains shown)
VH: EVQLQQSGAEVVRPGALVKLSCKAAGFNIKDYFIHWVKQRPEQGLEWIGLIDPENDNTMYDPRFQVKASLTADTSSNTAYLQLSRLTSEDAAVYYCASTVVARSFDYWGQGTTLTVSS
VL: SIVMTQTPKFLLVSAGDRVTITCKASQSVSNDVAWYQQKSGQSPKLLIYYTSNRYTGVPDRFTGSGYGTDFTFTISTVQAEDLAVYFCQQDFRSPFTFGAGTKLELK
notes: Mouse hybridoma IgG; also called moIgG CB6B3; mouse IgG CB6B3
Does B3 bind [3]?
Result: binds

Does B3 bind [2]?
Result: binds

Does B3 bind (ectodomain of Siglec-7)?
Result: no binding

B4: chimeric IgG1 CB6B3 (cIgG CB6B3) (antibody, V domains shown)
VH: B3 VH
VL: B3 VL
notes: Chimeric IgG1 of CB6B3 made in HEK293-6E cells; also called cIgG CB6Bb
Does B4 bind [4]?
Result: binds

B5: CB6B3 in Fab format (Fab, V domains shown)
VH: B3 VH
VL: B3 VL
notes: Tested in Fab format in BLI; printed as 'C1B613', read as CB6B3; also called C1B613
Does B5 bind (Siglec-7 (BLI))?
Result: no binding (tested: 250 nM)

Does B5 bind (Siglec-3)?
Result: no binding (tested: 250 nM)

Does B5 bind (Siglec-6)?
Result: no binding (tested: 250 nM)

Does B5 bind (Siglec-10)?
Result: no binding (tested: 250 nM)

Does B5 bind (Siglec-8)?
Result: no binding (tested: 250 nM)
